Measurements taken from patent US20240327538A1 (AMUNIX PHARMACEUTICALS, published 2024).

B1: AMX-500(uTCE) (bispecific antibody)
chain: GTSESATPESQVQLVESGGGVVQPGRSLRLSCAASGRTFGIYVWGWFRQAPGKEREFVGAMSWSGSNRKVSDSVKGRFTISRDNSKNTLYLQMNSLRAEDTAVYYCAASNKEYGRTWYDFNESDYWGQGTQVTVSSGGGGSGGGSELVVTQEPSLTVSPGGTVTLTCRSSNGAVTSSNYANWVQQKPGQAPRGLIGGTNKRAPGTPARFSGSLLGGKAALTLSGVQPEDEAVYYCALWYPNLWVFGGGTKLTVLSESATPESGPGTSPGATPESGPGTSESATPEVQLVESGGGIVQPGGSLRLSCAASGFTFSTYAMNWVRQAPGKGLEWVGRIRTKRNNYATYYADSVKGRFTISRDDSKNTVYLQMNSLKTEDTAVYYCVRHENFGNSYVSWFAHWGQGTLVTVSSGTATPESGPG
notes: also called uTCE from AC3896; fully unmasked AMX-500; not shown: remnant of cleaved N-terminal release segment RSR-3213; remnant of cleaved C-terminal release segment RSR-3213
B2: uTCE from AC3092 (bispecific antibody)
chain: LTGPATSGSETPGTQVQLVESGGGVVQPGRSLRLSCAASGRTFGIYVMGWVRQAPGKEREFVAAISWSGSNRLVSDSVKGRFTISRDNSKNTLYLQMNSLRAEDTAVYYCAASNRLYGRTWYDFNESDYWGQGTQVTVSSGGGGSGGGSELVVTQEPSLTVSPGGTVTLTCRSSNGAVTSSNYANWVQQKPGQAPRGLIGGTNKRAPGTPARFSGSLLGGKAALTLSGVQPEDEAVYYCALWYPNLWVFGGGTKLTVLGATPPETGAETESPGETTGGSAESEPPGEGEVQLLESGGGIVQPGGSLKLSCAASGFTFNTYAMNWVRQAPGKGLEWVARIRSKYNNYATYYADSVKDRFTISRDDSKNTVYLQMNNLKTEDTAVYYCVRHENFGNSYVSWFAHWGQGTLVTVSSGTAEAASASGEAGRSANHTPAG
notes: unmasked TCE released from this paTCE; also called AMX-500-P1; PSMA.5-CD3.23 uTCE
B3: uTCE of AC3265 (bispecific antibody, V domains shown)
VH: QVQLVESGGGVVQPGRSLRLSCAASGRTFGIYVMGWYRQAPGKEREFVAAISWSGSNRLVSDSVKGRFTISRDNSKNTLYLQMNSLRAEDTAVYYCAASNRLYGRTWYDFNESDYWGQGTQVTVSS
notes: VHH in uTCE with CD3.23 scFv (VL-VH), 9-residue linker; also called PSMA.55; V37Y
B4: uTCE of AC3329 (bispecific antibody)
chain: LTGPRAPPEPEFARATSGSETPGTQVQLVESGGGVVQPGRSLRLSCAASGRTFGIYVMGWVRQAPGKEREFVAAISWSGSNRKVSDSVKGRFTISRDNSKNTLYLQMNSLRAEDTAVYYCAASNRLYGRTWYDFNESDYWGQGTQVTVSSGGGGSGGGSELVVTQEPSLTVSPGGTVTLTCRSSNGAVTSSNYANWVQQKPGQAPRGLIGGTNKRAPGTPARFSGSLLGGKAALTLSGVQPEDEAVYYCALWYPNLWVFGGGTKLTVLGATPPETGAETESPGETTGGSAESEPPGEGEVQLLESGGGIVQPGGSLKLSCAASGFTFNTYAMNWVRQAPGKGLEWVARIRSKYNNYATYYADSVKDRFTISRDDSKNTVYLQMNNLKTEDTAVYYCVRHENFGNSYVSWFAHWGQGTLVTVSSGTAEAASASGEAGRSANHTPAG
notes: unmasked TCE of this paTCE; also called PSMA.119; L59K
B5: uTCE from AC3928 (bispecific antibody)
chain: LTGPGTSESATPESQVQLVESGGGVVQPGRSLRLSCAASGRTFGIYVWGWFRQAPGKEREFVGAMSWSGSNRKVSDSVKGRFTISRDNSKNTLYLQMNSLRAEDTAVYYCAASNKEYGRTWYDFNESDYWGQGTQVTVSSGGGGSGGGSELVVTQEPSLTVSPGGTVTLTCRSSNGAVTSSNYANWVQQKPGQAPRGLIGGTNKRAPGTPARFSGSLLGGKAALTLSGVQPEDEAVYYCALWYPNLWVFGGGTKLTVLSESATPESGPGTSPGATPESGPGTSESATPEVQLLESGGGIVQPGGSLKLSCAASGFTFNTYAMNWVRQAPGKGLEWVARIRSKYNNYATYYADSVKDRFTISRDDSKNTVYLQMNNLKTEDTAVYYCVRHENFGNSYVSWFAHWGQGTLVTVSSGTATPESGPGEAGRSASHTPAG
notes: unmasked TCE released from this paTCE; also called PSMA.350-CD3.23 uTCE; AMX500-P6
B6: uTCE from AC3934 (bispecific antibody)
chain: LTGPGTSESATPESQVQLVESGGGVVQPGRSLRLSCAASGRTFGIYVWGWVRQAPGKEREFVGAISWSGSNRKVSDSVKGRFTISRDNSKNTLYLQMNSLRAEDTAVYYCAASNKLYGRTWYDFNESDYWGQGTQVTVSSGGGGSGGGSELVVTQEPSLTVSPGGTVTLTCRSSNGAVTSSNYANWVQQKPGQAPRGLIGGTNKRAPGTPARFSGSLLGGKAALTLSGVQPEDEAVYYCALWYPNLWVFGGGTKLTVLSESATPESGPGTSPGATPESGPGTSESATPEVQLVESGGGIVQPGGSLRLSCAASGFTFSTYAMNWVRQAPGKGLEWVGRIRTKRNNYATYYADSVKGRFTISRDDSKNTVYLQMNSLKTEDTAVYYCVRHENFGNSYVSWFAHWGQGTLVTVSSGTATPESGPGEAGRSASHTPAG
notes: unmasked TCE released from this paTCE; also called PSMA.262-CD3.228 uTCE

Columns and labels:
human PSMA [1] = target: T1, human PSMA (human, UniProt Q04609 44-750, limits assumed); test: Octet
T1 construct: also called huPSMA

cynomolgus monkey PSMA [2] = target: T2, cynomolgus monkey PSMA (cynomolgus monkey, UniProt A0A2K5VNZ0 44-750); test: Octet
T2 construct: also called cyPSMA; Cyno PSMA

human CD3 epsilon [3] = target: T3, human CD3 epsilon (human, UniProt P07766 23-126, limits assumed); test: Octet
T3 construct: also called huCD3e

[4] = target: T4, cynomolgus monkey CD3 epsilon (cynomolgus monkey, UniProt Q95LI5 22-117, limits assumed); test: Octet
T4 construct: also called cyCD3e
T4 sequence (looked up): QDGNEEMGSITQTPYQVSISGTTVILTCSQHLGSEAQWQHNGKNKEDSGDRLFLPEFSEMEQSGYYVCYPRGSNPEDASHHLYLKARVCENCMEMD

human PSMA [5] = target: T1, human PSMA; test: Biacore
cynomolgus monkey PSMA [6] = target: T2, cynomolgus monkey PSMA; test: Biacore
human CD3 epsilon [7] = target: T3, human CD3 epsilon; test: Biacore
[8] = target: T4, cynomolgus monkey CD3 epsilon; test: Biacore
human PSMA [9] = target: T1, human PSMA; test: BLI or SPR
Source text: (§1) The values are reported below in Table 19 for PSMA and Table 20 for CD3.

cynomolgus monkey PSMA [10] = target: T2, cynomolgus monkey PSMA; test: BLI or SPR
Source text: as §1

Human CD3 = target: T5, Human CD3 (human, UniProt P07766 23-126); test: BLI or SPR
T5 construct: not shown: A CD3 delta partner cannot be excluded

Cyno CD3 = target: T6, Cyno CD3 (cynomolgus monkey, UniProt Q95LI5 22-117); test: BLI or SPR
T6 construct: also called cynomolgus monkey CD3; not shown: A CD3 delta partner cannot be excluded
T6 sequence: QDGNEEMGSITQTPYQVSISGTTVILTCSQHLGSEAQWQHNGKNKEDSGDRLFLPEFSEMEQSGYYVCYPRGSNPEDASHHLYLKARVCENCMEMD

[11] = target: T7, PSMA on human prostate cancer cell lines (LNCaP, 22Rv1) (human, UniProt Q04609 1-750); test: cell-based or functional assay
[12] = target: T7, PSMA on human prostate cancer cell …; test: cell-based or functional assay; remark: listed apart in the source
[13] = target: T8, human PSMA on PSMA-transfected CHO cells (human, UniProt Q04609 1-750); test: binding to PSMA-transfected CHO cells, labeled secondary antibody to the anti-CD3 scFv
T8 construct: whole, on cells; also called Hu PSMA CHO
Procedure: (§2) Surface binding was detected with a labeled secondary antibody specific for the anti-CD3 scFv.
(§3) The binding affinities to both human and cyno PSMA and human and cyno CD3 epsilon were determined.

human PSMA-Fc [14] = target: T9, human PSMA-Fc (human, UniProt Q04609 44-750, limits assumed); test: Octet
T9 construct: also called Human PSMA-Fc fusions; not shown: Fc part

human PSMA-Fc [15] = target: T9, human PSMA-Fc; test: Octet, human PSMA-Fc
Procedure: Binding affinity of select PSMA PTE variants was tested by Octet.

human PSMA-Fc [16] = target: T9, human PSMA-Fc; test: linker length / domain swap comparison
[17] = target: T10, cyno PSMA on PSMA-transfected CHO cells (cynomolgus monkey, UniProt A0A2K5VNZ0 1-750); test: binding to PSMA-transfected CHO cells, labeled secondary antibody to the anti-CD3 scFv
T10 construct: whole, on cells; also called Cyno PSMA CHO
Procedure: as §2, §3

human PSMA-Fc [18] = target: T9, human PSMA-Fc; test: Octet, human PSMA-Fc, 300-3.6 nM PSMA-uTCE
human PSMA [19] = target: T1, human PSMA; test: Pool 2 binding screen

T1 sequence (Q04609 44-750 limits assumed): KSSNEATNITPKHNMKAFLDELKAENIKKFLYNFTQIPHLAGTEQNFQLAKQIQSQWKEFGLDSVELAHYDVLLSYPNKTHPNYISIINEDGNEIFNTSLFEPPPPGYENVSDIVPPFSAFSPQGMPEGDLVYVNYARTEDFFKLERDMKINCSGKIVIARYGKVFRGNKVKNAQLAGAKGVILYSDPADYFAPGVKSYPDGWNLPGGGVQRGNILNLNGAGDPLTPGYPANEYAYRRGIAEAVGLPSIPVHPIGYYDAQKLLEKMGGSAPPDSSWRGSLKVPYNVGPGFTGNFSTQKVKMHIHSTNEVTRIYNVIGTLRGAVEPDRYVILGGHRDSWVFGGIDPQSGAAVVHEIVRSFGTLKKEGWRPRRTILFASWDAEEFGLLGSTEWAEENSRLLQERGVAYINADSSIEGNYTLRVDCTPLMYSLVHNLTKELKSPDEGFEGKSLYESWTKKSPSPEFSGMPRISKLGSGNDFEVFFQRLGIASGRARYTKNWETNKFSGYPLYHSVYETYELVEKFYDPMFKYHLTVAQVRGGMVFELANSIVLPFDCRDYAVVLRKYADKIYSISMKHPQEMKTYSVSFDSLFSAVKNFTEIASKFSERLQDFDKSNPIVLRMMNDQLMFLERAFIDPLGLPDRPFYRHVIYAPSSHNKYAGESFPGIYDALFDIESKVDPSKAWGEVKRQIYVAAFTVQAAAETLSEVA
T9 sequence (Q04609 44-750 limits assumed): as above
T3 sequence (P07766 23-126 limits assumed): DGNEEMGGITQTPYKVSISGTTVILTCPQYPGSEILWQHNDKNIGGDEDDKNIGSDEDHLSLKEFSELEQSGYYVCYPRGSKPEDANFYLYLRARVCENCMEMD
T5 sequence (P07766 23-126 limits assumed): as above
T7 sequence (Q04609 whole entry): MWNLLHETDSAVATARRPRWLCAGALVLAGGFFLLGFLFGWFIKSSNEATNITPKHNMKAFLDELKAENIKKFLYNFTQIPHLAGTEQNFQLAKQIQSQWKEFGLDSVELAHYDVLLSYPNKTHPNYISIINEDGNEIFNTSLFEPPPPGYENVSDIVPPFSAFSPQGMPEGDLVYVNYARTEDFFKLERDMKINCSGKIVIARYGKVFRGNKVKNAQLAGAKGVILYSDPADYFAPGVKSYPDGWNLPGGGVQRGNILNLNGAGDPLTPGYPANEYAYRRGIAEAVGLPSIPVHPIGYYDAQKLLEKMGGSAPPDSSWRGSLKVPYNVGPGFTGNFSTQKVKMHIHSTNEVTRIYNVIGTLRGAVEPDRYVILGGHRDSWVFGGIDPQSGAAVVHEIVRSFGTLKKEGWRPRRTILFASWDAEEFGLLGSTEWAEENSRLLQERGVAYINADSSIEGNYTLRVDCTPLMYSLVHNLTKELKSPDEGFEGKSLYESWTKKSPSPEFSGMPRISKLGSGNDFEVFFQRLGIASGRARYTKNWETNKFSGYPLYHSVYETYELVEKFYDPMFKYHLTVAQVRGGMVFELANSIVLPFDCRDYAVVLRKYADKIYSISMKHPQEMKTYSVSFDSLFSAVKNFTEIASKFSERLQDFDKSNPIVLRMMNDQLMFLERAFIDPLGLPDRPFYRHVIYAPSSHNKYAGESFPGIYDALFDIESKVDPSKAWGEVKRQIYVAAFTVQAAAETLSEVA
T8 sequence (Q04609 whole entry): as above

Binder | Kd (human PSMA [1]) [nM] | Kd (cynomolgus monkey PSMA [2]) [nM] | Kd (human CD3 epsilon [3]) [nM] | Kd [4] [nM] | Kd (human PSMA [5]) [nM] | Kd (cynomolgus monkey PSMA [6]) [nM] | Kd (human CD3 epsilon [7]) [nM] | Kd [8] [nM] | EC50 [13] [nM] | Kd (human PSMA-Fc [14]) [nM] | Kd (human PSMA-Fc [15]) [nM] | koff (human PSMA-Fc [15]) [s⁻¹] | kon (human PSMA-Fc [15]) [M⁻¹ s⁻¹] | other results
B1 | 12.1 | 201 | 33.2 | 38.8 | 11.7 | 230 | 12.8 | 13.7 | 17.4 |  |  |  |  | Kd (human PSMA [9]): 44 nM; koff (human PSMA [9]): 0.012 s⁻¹; kon (human PSMA [9]): 270000 M⁻¹ s⁻¹; Kd (cynomolgus monkey PSMA [10]): 410 nM; koff (cynomolgus monkey PSMA [10]): 0.043 s⁻¹; kon (cynomolgus monkey PSMA [10]): 100000 M⁻¹ s⁻¹; Kd (Human CD3): 28 nM; koff (Human CD3): 0.1 s⁻¹; kon (Human CD3): 4e+06 M⁻¹ s⁻¹; Kd (Cyno CD3): 26 nM; koff (Cyno CD3): 0.1 s⁻¹; kon (Cyno CD3): 5e+06 M⁻¹ s⁻¹; in vitro cytotoxicity IC50, LNCaP PSMA-high cells with PBMC, donor 1 [11]: 0.024 nM; in vitro cytotoxicity IC50, LNCaP PSMA-high cells with PBMC, donor 2 [11]: 0.015 nM; in vitro cytotoxicity IC50, LNCaP PSMA-high cells with PBMC, donor 3 [11]: 0.016 nM; in vitro cytotoxicity IC50, LNCaP PSMA-high cells with PBMC, donor 5 [11]: 0.032 nM; in vitro cytotoxicity IC50, 22Rv1 cells with PBMC, donor 1 [12]: 0.691 nM; in vitro cytotoxicity IC50, 22Rv1 cells with PBMC, donor 2 [12]: 1.34 nM; in vitro cytotoxicity IC50, 22Rv1 cells with PBMC, donor 3 [12]: 1.3 nM
B2 | 4.5 | 41.1 | 71.9 | 64.6 |  |  |  |  | 9.06 | 3.9 | 3.9 | 0.000273 | 72500 | Kd (human PSMA-Fc [16]): 3.9 nM; koff (human PSMA-Fc [16]): 0.00027 s⁻¹; kon (human PSMA-Fc [16]): 72000 M⁻¹ s⁻¹; EC50 [17]: 28.8 nM
B3 |  |  |  |  |  |  |  |  |  | 2.7 |  | 0.00028 | 104000 | Kd (human PSMA-Fc [18]): 2.7 nM
B4 |  |  |  |  |  |  |  |  |  | 3.2 | 3.2 | 0.000248 | 80000 | Kd (human PSMA [19]): 4.1 nM
B5 | 13.2 | 198 | 43 | 44.9 | 19 | 354 | 27.3 | 26.6 |  |  |  |  |  | 
B6 | 1.6 | 13.1 | 26.6 | 33.7 | 0.5 | 13 | 9.83 | 10.4 |  |  |  |  |  | 
